Test results as given in paper PMC7334207, “Select amino acids in DGCR8 are essential for the UGU-pri-miRNA interaction and processing” (Communications Biology, 2020).
Residue numbers refer to the chain shown, from its start.

T1: G478del-mut1 (Homo sapiens, UniProt Q8WYQ5 285-478, W461A;A462G;E463Q;del370-429)
T1 sequence: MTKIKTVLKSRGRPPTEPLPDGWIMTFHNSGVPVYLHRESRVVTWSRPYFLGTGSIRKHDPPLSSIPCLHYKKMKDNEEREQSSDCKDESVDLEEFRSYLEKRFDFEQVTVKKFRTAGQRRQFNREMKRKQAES

T2: G478 (Rhed) (Homo sapiens, UniProt Q8WYQ5 285-478)
T2 sequence: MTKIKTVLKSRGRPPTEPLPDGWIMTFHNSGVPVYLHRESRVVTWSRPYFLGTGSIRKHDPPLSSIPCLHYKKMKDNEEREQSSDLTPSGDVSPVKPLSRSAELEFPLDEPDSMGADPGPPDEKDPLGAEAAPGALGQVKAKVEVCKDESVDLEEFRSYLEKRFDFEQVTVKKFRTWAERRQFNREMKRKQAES

T3: G478del WT (Homo sapiens, UniProt Q8WYQ5 285-478, del370-429)
T3 sequence: T1 sequence with A117W, G118A, Q119E

T4: G478del WT-mut1 hybrid dimer (Homo sapiens, UniProt Q8WYQ5;Q8WYQ5 285-369+430-478;285-369+430-478, internal_change;W461A;A462G;E463Q;internal_change)
T4 sequence 1: T1 sequence with A117W, G118A, Q119E
T4 sequence 2: T1 sequence

B1: G460del, G478del with the 461–478 region deleted (domain or fragment, human, UniProt Q8WYQ5 285-460, looked up)
chain: MTKIKTVLKSRGRPPTEPLPDGWIMTFHNSGVPVYLHRESRVVTWSRPYFLGTGSIRKHDPPLSSIPCLHYKKMKDNEEREQSSDCKDESVDLEEFRSYLEKRFDFEQVTVKKFRT
notes: Lost its hemin-associating ability; source: E. coli, purified (as G478 and its variants)
B2: G478, Rhed (RNA-binding heme domain) of DGCR8, amino acids 285–478 (domain or fragment, human, UniProt Q8WYQ5 285-478, looked up)
chain: T2 sequence
notes: Associated with hemin; also called Rhed dimer; G478 dimer; source: E. coli, purified (as described for the G4 fragments: Ni2+-agarose, SP-sepharose; then Superdex 200)
B3: G478del, G478 (DGCR8 amino acids 285–478) with the 370–429 region deleted (domain or fragment, human, UniProt Q8WYQ5 285-478, looked up)
chain: T1 sequence with A117W, G118A, Q119E
notes: Associated with hemin; Theoretical dimer mass ~30 kDa as printed; also called G478del–WT; source: E. coli, purified (as described for G478)
B4: G478del-mut1, G478del with AGQ in the 461–463 region instead of WAE (domain or fragment, human, UniProt Q8WYQ5 285-478, looked up)
chain: T1 sequence
notes: Associated with hemin; source: E. coli, purified (as described for G478del)

Assays:
[1] = target: the molecule itself; assay: SEC-MALS; molecular mass of the purified protein estimated with a Multi-Angle Light Scattering detector (miniDAWN TREOS, Wyatt Technology Corporation); compared with the theoretical mass of a dimer
G478del-mut1 = target: T1, G478del-mut1; assay: EMSA; 50 mM Tris-HCl pH 7.5, 250 mM NaCl, 10% glycerol, 0.2 mg/ml BSA, 1 mM DTT, 2 mM EDTA; 1 uM RNA in 10 uL; on ice 60 min; 4% native PAGE at 4 C, ethidium bromide; details: protein: recombinant; tags: 10xHis; chain copies: 2; hairpin
G478 (Rhed) = target: T2, G478 (Rhed); assay: as above; details: protein: recombinant; (purified as for G4; theoretical dimer 44 kDa implies no GFP); chain copies: 2; hairpin
G478del WT = target: T3, G478del WT; assay: as above; details: protein: recombinant; chain copies: 2; hairpin
[2] = target: T4, G478del WT-mut1 hybrid dimer; assay: as above; details: protein: recombinant; tags: 10xHis on mut1 subunit; protein G on WT subunit removed by HRV 3C; copies: 1;1; hairpin

Binder	stoichiometry N [1]	Kd (G478del-mut1)	Kd (G478 (Rhed))	Kd (G478del WT)	Kd [2]
B1	2	–	–	–	–
B2	2	–	–	–	–
B3	2	–	–	–	–
B4	2	–	–	–	–
ACUGGAAGCCAAGAAAGAUGGGCUUUCAGU (structured_RNA) [10L10_noUGU]	–	13.8 ± 0.39 µM	8.57 ± 0.96 µM	16.8 ± 1.48 µM	11.5 ± 0.77 µM
ACUGGAAGCUGUGAAAGAUGGGCUUUCAGU (structured_RNA) [10L10_UGU]	–	9.03 ± 0.61 µM	3.43 ± 0.29 µM	5.73 ± 0.39 µM	5.43 ± 0.46 µM
